Legend:
[1] = molecular target: T1, human LAG-3-His (LAG-3 with C-terminal polyhistidine tag, ACROBiosystems) (human, UniProt P18627 23-450); assay: ELISA: LAG-3-His coated, detection anti-Tlc antibody-HRP (an antibody without lipocalin part would not be seen by this detection; see Figure 3C for anti-Fc detection)
T1 construct: Bought protein; also called recombinant LAG-3-His
T1 sequence (looked up): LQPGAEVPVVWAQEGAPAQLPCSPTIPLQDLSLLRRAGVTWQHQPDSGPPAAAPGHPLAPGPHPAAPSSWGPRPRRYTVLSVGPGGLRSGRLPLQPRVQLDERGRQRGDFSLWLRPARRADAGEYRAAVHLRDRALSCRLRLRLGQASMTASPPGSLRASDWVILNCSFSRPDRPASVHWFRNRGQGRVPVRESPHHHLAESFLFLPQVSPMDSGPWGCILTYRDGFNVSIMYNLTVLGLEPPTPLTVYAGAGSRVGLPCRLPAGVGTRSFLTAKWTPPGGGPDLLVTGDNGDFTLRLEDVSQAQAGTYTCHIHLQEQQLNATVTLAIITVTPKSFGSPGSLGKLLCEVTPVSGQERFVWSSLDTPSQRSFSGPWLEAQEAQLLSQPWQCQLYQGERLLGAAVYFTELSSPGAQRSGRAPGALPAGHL

[2] = molecular target: T2, human LAG-3-Fc fusion (human LAG-3 extracellular domain fused to human IgG1 Fc fragment, R&D Systems) (human, UniProt P18627 23-450, biotinylated in Example 5 (sites not given)); assay: dual-binding ELISA: PD-1-His coated, antibody titrated from 250 nM, then biotinylated huLAG-3-Fc 2 ug/mL, detection Extravidin-HRP, RFU
T2 construct: extracellular domain; also called huLAG-3-Fc; biotinylated human LAG-3-Fc; not shown: human IgG1 Fc fragment
T2 sequence (looked up): T1 sequence (looked up)
Description: The plates were washed five times after each incubation step with 100 μL PBS-0.05% T. The plates were blocked with 2% BSA (w/v) in PBS-0.1% T for 1 h at room temperature and subsequently washed again. Different concentrations of the fusion polypeptides were added to the wells and incubated for 1 h at room temperature, followed by a wash step. […] After an additional wash step, fluorogenic HRP substrate (QuantaBlu, Thermo) was added to each well and the fluorescence intensity was detected using a fluorescence microplate reader.

binding result [1]: no binding (tested: 250 nM) | binding result [2]: no binding (tested: 250 nM)
B1: PD-1 specific benchmark antibody (SEQ ID NOs: 3 and 4) (antibody, human IgG4 S228P, kappa, V domains shown)
VH: QVQLVESGGGVVQPGRSLRLDCKASGITFSNSGMHWVRQAPGKGLEWVAVIWYDGSKRYYADSVKGRFTISRDNSKNTLFLQMNSLRAEDTAVYYCATNDDYWGQGTLVTVSS
VL: EIVLTQSPATLSLSPGERATLSCRASQSVSSYLAWYQQKPGQAPRLLIYDASNRATGIPARFSGSGSGTDFTLTISSLEPEDFAVYYCQQSSNWPRTFGQGTKVEIKR
notes: Engineered IgG4 backbone with the S228P mutation; also called PD-1-specific antibody
